Reference: patent US12411143B2, “CD146 and uses thereof as a biomarker and as a therapeutic target in the diagnosis and treatment of fibrosis” (ASSISTANCE PUBLIQUE HÔPITAUX DE MARSEILLE, priority 2018, dated 2025)

B1: rh-I5-13-sCD146: recombinant spliced variant of soluble CD146 containing introns 5 and 13, SEQ ID NO: 8 (protein, listed as Homo sapiens)
chain: MVYIVRQFLLYNVSGSVYLDQLIVLLTAKFSILRIAGSRVHHSPFSGHLDGCSFLSLQHSLHTSLDMSRHENVFLGLTLSSKSAGLKGFQLAFVPGLLQGTGGYLDGPLPTPVDNPRVGLEVGLRLSLPPLPPCPGVHIQSSQTVESSGLYTLQSILKAQLVKEDKDAQFYCELNYRLPSGNHMKESREVTVPVFYPTEKVWLEVEPVGMLKEGDRVEIRCLADGNPPPHFSISKQNPSTREAEEETTNDNGVLVLEPARKEHSGRYECQGLDLDTMISLLSEPQELLVNYVSDVRVSPAAPERQEGSSLTLTCEAESSQDLEFQWLREETGQVLERGPVLQLHDLKREAGGGYRCVASVPSIPGLNRTQLVNVAIFGPPWMAFKERKVWVKENMVLNLSCEASGHPRPTISWNVNGTASEQDQDPQRVLSTLNVLVTPELLETGVECTASNDLGKNTSILFLELVNLTTLTPDSNTTTGLSTSTASPHTRANSTSTGKPGLAREQGCARASFLPCPSPESPVQKGE
B2: rh-I10-sCD146: recombinant spliced variant of soluble CD146 containing intron 10, SEQ ID NO: 9 (protein, listed as Homo sapiens)
chain: MGLPRLVCAFLLAACCCCPRVAGVPGEAEQPAPELVEVEVGSTALLKCGLSQSQGNLSHVDWFSVHKEKRTLIFRVRQGQGQSEPGEYEQRLSLQDRGATLALTQVTPQDERIFLCQGKRPRSQEYRIQLRVYKAPEEPNIQVNPLGIPVNSKEPEEVATCVGRNGYPIPQVIWYKNGRPLKEEKNRVHIQSSQTVESSGLYTLQSILKAQLVKEDKDAQFYCELNYRLPSGNHMKESREVTVPVFYPTEKVWLEVEPVGMLKEGDRVEIRCLADGNPPPHFSISKQNPSTREAEEETTNDNGVLVLEPARKEHSGRYECQGLDLDTMISLLSEPQELLVNYVSDVRVSPAAPERQEGSSLTLTCEAESSQDLEFQWLREETGQVLERGPVLQLHDLKREAGGGYRCVASVPSIPGLNRTQLVNVAIFGEALPLGRDQVTPSGVVFKLFDKKPPAALGSSGAEGEAG

Experiments:
ECFC [1] = test: mRNA expression of sCD146 isoforms in ECFC (qPCR); assay type: cell-based, human; conditions: for expression of short CD146, long CD146, I5-13-sCD146 and I10-sCD146 at the mRNA level: endothelial cells treated with recombinant proteins
Procedure: C: The mRNA expression of I10-sCD146 and I5-13-sCD146 isoforms was analyzed by qPCR in ECFC after treatment of the cells for 24 h with the recombinant shed soluble CD146 50 ng/ml, VEGF 20 ng/ml, TNF 20 ng/ml, TGF beta 5 ng/ml, and netrin 50 ng/ml. Cells were also treated for 15 min with WNT5a 200 ng/ml and 1 h with WNT3a 50 ng/ml. Results are the mean values +/−SEM of 3 experiments. *: P<0.05, experimental vs Control.
Total cellular RNA was isolated from cells, reverse transcribed into cDNA and the resulting cDNA was subjected to qPCR.

ECFC [2] = test: ECFC proliferation assay; assay type: cell-based, human; conditions: recombinant proteins 50 ng/ml, in the presence of GM6001 10 μM
Procedure: A: Effect of siRNA targeting I10-sCD146 and I5-13-sCD146 on proliferation of ECFC. Experiments were performed in the presence of GM6001 10 μM. Results are mean values of 4 different experiments and representative pictures of the cells in one experiment are given.
B: Effect of over-expression of I10-sCD146 (p-I10-sCD146), I5-13-sCD146 (p-I5-13-sCD146) and shed sCD146 (p-shed sCD146) realized by plasmid transfection on proliferation of ECFC. Experiments were performed in the presence of GM6001 10 μM.
C: Effect of recombinant proteins I10-sCD146, I5-13-sCD146 and shed sCD146 50 ng/ml on the proliferation of ECFC. Experiments were performed in the presence of GM6001 10 μM. Results are mean values of 4 different experiments.
Experiments were performed as previously described (Stalin et al., 2013).

ECFC [3] = test: Endothelial cell tube formation in spheroids; assay type: cell-based, human; conditions: recombinant proteins 50 ng/ml
Procedure: E: Effect of recombinant proteins I10-sCD146, I5-13-sCD146 and shed sCD146 50 ng/ml on the number of sprouts, branched points and cumulative sprout length in spheroid experiments realized with ECFC. Results were compared to VEGF 20 ng/ml and complete EGM2-MV medium.
Formation of spheroid experiments was performed as previously described (Korff T. et al., 2001).

[4] = test system: mouse ischemic hind limb model; test: Mouse hind limb ischemia model; assay type: in vivo; conditions: for blood flow (laser-Doppler): 2 μg locally twice a week for 28 days; for blood flow (laser-Doppler) / vascularisation of muscle (isolectin B4 labelling): compared to PBS; for vascularisation of muscle (isolectin B4 labelling): 28 days after surgery; for number of vessels in the legs (angiography pictures) / vessel density in calf, thigh and whole leg (angiography quantification): D28, compared to PBS
Procedure: A: Ischemic mice were treated with PBS or 2 μg of rh-sCD146/rh-I10-sCD146/rh-I5-13-sCD146 or VEGF. Blood perfusion rate was monitored by laser-Doppler. Results are mean values of 6 different animals in each group and expressed as % of the control leg. *, **, ***: P<0.05, P<0.01, P<0.001, I10-sCD146 vs. PBS; $$, $$$: P<0.01, P<0.001, I5-13-sCD146 vs. PBS; ##, ###: P<0.01, P<0.001, shed sCD146 vs. PBS; £: P<0.05, VEGF vs. PBS.
B: Blood vessels examination in hind limb muscle sections from control (PBS) and shed rh-sCD146/rh-I10-sCD146/rh-I5-13-sCD146 treated animals 28 days after surgery. Vessels are labelled with isolectin B4.**, ***: P<0.01, P<0.001, experimental vs control. $: P<0.05, I10-sCD146 vs I5-13-sCD146.
C: Angiographic pictures of control (PBS) and shed sCD146/I10-sCD146/I5-13-sCD146 treated animals at D28. Pictures are representative of the 6 animals in each group. Average of the density of the vessels was expressed as right versus left leg in the different parts of the legs (calf, thigh) and in the whole leg. *, **: P<0.01, P<0.001 experimental vs PBS in calf; $: P<0.05, experimental vs PBS in thigh; #, ##: P<0.05, P<0.01, experimental vs PBS in whole leg.
In sections of muscles from ischemic mice, vascularisation was visualized with isolectin B4 (Lifetechnologies) ( 1/100). Tissue sections were examined by fluorescence microscopy (Leica sp5, Leica, Nanterre, France).
Female mice were subjected to unilateral hind limb ischemia by complete resection of the entire left femoral artery. After surgery, animals were split in four treatment groups: one control group injected in ischemic adductor muscles twice a week with PBS for 28 days; three experimental groups treated as the control groups with the three different recombinant human soluble CD146 (rh-sCD146, rh-I5-13-sCD146, rh-I10-sCD146) 2 μg.
The ratio of the ischemic versus normal hind limb blood flow was measured using a laser doppler blood flow analyzer. At different time points post-surgery (days 1, 3, 7, 14, 21 and 28), animals were subjected to 3 consecutive laser scannings over the regions of interest (leg and feet). Blood flow was expressed as the ischemic versus normal hind limb ratio.
The animals were deeply anesthetised with mix of Ketamine Xylasine (100 mg/kg and 10 mg/kg respectively) and perfused intracardially with 2 ml of lipiodole. CT 3D images were obtained with a microPET/microCT rodent model scanner (nanoPET/CTO, Mediso) with features below: 70 kVp energy, exposure time of 300 ms and 720 projections and were quantified.

[5] = test system: CD146 KO mouse model of Systemic Sclerosis; test: CD146 KO mouse model of Systemic Sclerosis induced by bleomycin; assay type: in vivo; conditions: bleomycin-treated animals, subcutaneous injection
Procedure: C: Dermal thickness was evaluated in a CD146 KO mouse model of Systemic Sclerosis induced by subcutaneous injection of bleomycin. The effect of shed sCD146, I5-13-sCD146 and I10-sCD146 was estimated and the average of 4-5 different animals was given. Representative pictures are also shown.
D: The aspect of the skin is shown in the different CD146 KO mice treated with bleomycin and injected or not with shed sCD146, I10-sCD146 and I5-13-sCD146.
E: Blood vessels examination in skin of animals treated or not with shed sCD146/I10-sCD146/I5-13-sCD146. Vessels are labelled with isolectin B4. Results are representative of 3 different experiments in the 4-5 animals.
Male CD146 KO mice (11-16 weeks) were treated with subcutaneous bleomycin and were compared with littermates WT mice as previously described (Kaspi et al., 2017).
Mice skin sections were fixed in 4% formalin and embedded into paraffin. Dermal thickness was quantified using a stereological method using a Merz grid as previously described (Kaspi et al., 2017).

Molecule	I5-13-sCD146 mRNA level (ECFC [1]; ECFC, 24 h treatment (WNT5a 15 min, WNT3a 1 h))	endothelial cells proliferation (ECFC [2])	pseudo-capillary generation (number of sprouts, cumulative sprout length) (ECFC [3])	blood flow (laser-Doppler) [4]	vascularisation of muscle (isolectin B4 labelling) [4]	number of vessels in the legs (angiography pictures) [4]	vessel density in calf, thigh and whole leg (angiography quantification) [4]	dermal thickness [5]	vascularisation of the skin at macroscopic level [5]	vessel density in skin (isolectin-b4 labelling) [5]	expression of short CD146, long CD146, I5-13-sCD146 and I10-sCD146 at the mRNA level (ECFC [1])	time after first injection at which a significant effect on blood flow was observed ([4]; 2 μg locally twice a week) [days]
sCD146: recombinant human soluble form of CD146 corresponding to the shed sCD146, obtained from Biocytex	not modified	increased endothelial cells proliferation	increased the ability to generate pseudo-capillaries	able to increase blood flow	vascularisation was increased	increase in the number of vessels	significantly increased	reduced this dermal thickness to the value observed in control animals	increased vascularisation	significantly reversed		
B1		increased endothelial cells proliferation	increased the ability to generate pseudo-capillaries	able to increase blood flow	vascularisation was increased	increase in the number of vessels	significantly increased	no significant effect	did not	no effect	did not modify the expression	
B2		increased endothelial cells proliferation	increased the ability to generate pseudo-capillaries	able to increase blood flow	vascularisation was increased	increase in the number of vessels	significantly increased	reduced this dermal thickness to the value observed in control animals	increased vascularisation	significantly reversed	did not modify the expression	3
